Data reported in US20250195685A1 (CAPSTAN THERAPEUTICS, published 2025).

What was measured:
[1] = target: T1, human CD8αα homodimer, recombinant protein (Acro Biosystems) (human, UniProt P01732 22-182); test: BLI, whole antibody
T1 construct: also called CD8αα antigen; biotinylated CD8α recombinant protein (CDA-H82E3)

[2] = target: T2, human CD8 on cells (CD8-overexpressing HEK293T cells, SupT1, HPB-ALL, human T cells, transfected HEK293 of … (human, UniProt P01732 22-235)); test: flow cytometry on HPB-ALL cells; HPB-ALL cells
T2 construct: whole, on cells; also called cell surface CD8
Experimental: To obtain the results shown in FIG. 6, SupT1 (ATCC #CRL-1942) and HPB-ALL (DSMZ; ACC-483) were cultured in RPMI medium supplemented with 10% Fetal Bovine Serum (#97068-085; Avantor). To determine EC₅₀ values of cell binding from the anti-CD8α antibody, 2×10⁵ total cells were transferred to a V bottom 96-well culture plate (Corning). Cells were washed twice with Cell Staining buffer (#420201, Biolegend). The anti-CD8α antibody was diluted in four-fold antibody titration series from 60 μg/mL to […] into Cell Staining buffer. Cells were stained with each diluted antibody solution for 30 minutes on ice. Cells were then washed three times with Cell Staining buffer and primary antibody binding was detected by staining with anti-human Fc BV421 conjugate antibody (#410704, Biolegend) at 1:200 dilution for 30 minutes on ice. eFluor 780 Fixable Viability dye (eBioscience) at a 1:4000 dilution were also included in the detection antibody solutions. […] Flow cytometry data was analyzed by Flowjo 10 (Becton, Dickinson & Company) to measure the geometric median fluorescence intensity (gMFI) of the on-cell binding from each antibody. The gMFI values were normalized with the gMFI measured in the sample stained with only the secondary detection antibody and plotted against the concentration of the added antibodies. […]

[3] = target: T1, human CD8αα homodimer, recombinant …; test: BLI, whole antibody, steady state dissociation constant (column head x10^-9M)
Experimental: (§1) To assess affinity of whole antibodies, steady state analysis was used as the bivalent nature of both whole antibody and CD8α complicates kinetic analysis. 50 nM CD8α-His (that is, CD8α with a C-terminal oligohistidine tag; Acro) was immobilized on Ni-NTA sensor probes. Binding was analyzed with a three-fold antibody dilutions series: 60 nM, 20 nM, 6.67 nM, 2.22 nM, 0.74 nM, and 0.25 nM. The antigen-loaded sensors were incubated in the diluted solutions to capture the whole IgG antibody for 300 s to record the association phase. Sensors were incubated in the kinetic buffer for 900 s to record the dissociation phase. The spin speed was 1000 rpm for all steps except the antigen loading step which was 400 rpm to control density of the antigen. The temperature of the performed assays was at 30° C. during the association and dissociation phases. The sensor data were baseline subtracted and further analyzed in GatorOne software (version 2.10) to determine the equilibrium dissociation constants (KD) of the antibodies by fitting the signals of the steady states to the 1:1 binding model.

[4] = target: T1, human CD8αα homodimer, recombinant …; test: BLI steady state analysis, whole antibody, sample stressed at pH 8.5, 40 °C, 3 days
Experimental: as §1

[5] = target: T1, human CD8αα homodimer, recombinant …; test: BLI steady state analysis of the data of FIG. 2D
Experimental: The global fitting was performed with a 1:1 fitting model using GatorOne software as described below.
as §1

[6] = target: T3, cynomolgus macaque CD8αβ heterodimer, recombinant protein (cynomolgus macaque); test: SPR (Biacore 8K), antibody captured by anti-human Fc, CD8 as analyte, 1:1 fit, 25 °C
T3 construct: In BLI coupled directly to amine-reactive sensor tips; also called cynomolgus CD8αβ heterodimer
Experimental: (§2) Except for cynomolgus CD8αβ heterodimer, binding was analyzed with a two-fold dilution series of recombinant CD8αα homodimer or CD8αβ heterodimer protein from 200 nM to 6.25 nM. For cynomolgus CD8αβ heterodimer, binding was analyzed with a two-dilution series from 400 nM to 12.5 nM.. The global fitting was performed with a 1:1 fitting model using GatorOne software as described below.
(§3) Surface plasmon resonance (SPR) assays were performed using a Biacore 8K SPR instrument (Cytiva) in a running buffer containing 1×HBS-N(Cytiva) and 0.05% Tween-20 at 25° C. The CBD1033 antibody was captured by anti-human IgG (Fc) antibody (Cytiva) immobilized on a CM5 sensor chip (Cytiva) at a density within 40-50 and 80-100 response units (RU) for kinetic measurements with CD8αα and CD8αp, respectively. To measure the binding kinetics, serial two-fold dilutions of recombinant CD8 protein were prepared in the running buffer were injected into the flow cells at […], with the concentration ranging from 200 to 6.25 nM (successive 1:2 dilutions). The association data was collected for 180 s followed by a 1200 s dissociation step. At the end of each binding cycle, the sensor surface was regenerated with a 3M MgCl₂ buffer. For cynomolgus macaque CD8αβ heterodimer, the binding kinetics were assessed with the same experimental parameters, except the concentration ranges from 400 to 12.5 nM. Sensorgrams were generated, and background-subtracted with the blank running buffer. The binding kinetic parameters were analyzed and determined with a standard 1:1 monovalent binding (Langmuir) model using BIAcore Evaluation software (Cytiva).

[7] = target: human CD8αβ heterodimer, recombinant protein (human, UniProt P01732 22-182; P10966 22-170, limits assumed); test: as above
Experimental: as §2, §3

[8] = target: T4, cynomolgus macaque CD8αα homodimer, recombinant protein (cynomolgus macaque); test: as above
T4 construct: also called cynomolgus CD8αα homodimer
Experimental: as §2, §3

[9] = target: T1, human CD8αα homodimer, recombinant …; test: as above
Experimental: as §2, §3

Chain of human CD8αβ heterodimer, recombinant protein (P01732 22-182 limits assumed, chain 1 of 2): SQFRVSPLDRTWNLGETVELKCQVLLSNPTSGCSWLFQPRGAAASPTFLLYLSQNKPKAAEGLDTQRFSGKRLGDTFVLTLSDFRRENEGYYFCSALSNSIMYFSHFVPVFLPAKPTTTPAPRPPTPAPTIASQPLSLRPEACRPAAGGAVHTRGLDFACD
Chain of human CD8αβ heterodimer, recombinant protein (P10966 22-170 limits assumed, chain 2 of 2): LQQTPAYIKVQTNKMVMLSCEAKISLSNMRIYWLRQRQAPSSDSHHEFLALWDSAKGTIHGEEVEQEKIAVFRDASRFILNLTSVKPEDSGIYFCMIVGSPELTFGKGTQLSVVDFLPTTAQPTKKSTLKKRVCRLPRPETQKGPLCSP
T1 sequence (P01732 22-182 limits assumed): as the sequence (P01732 22-182 limits assumed, chain 1 of 2) above
T2 sequence (P01732 22-235): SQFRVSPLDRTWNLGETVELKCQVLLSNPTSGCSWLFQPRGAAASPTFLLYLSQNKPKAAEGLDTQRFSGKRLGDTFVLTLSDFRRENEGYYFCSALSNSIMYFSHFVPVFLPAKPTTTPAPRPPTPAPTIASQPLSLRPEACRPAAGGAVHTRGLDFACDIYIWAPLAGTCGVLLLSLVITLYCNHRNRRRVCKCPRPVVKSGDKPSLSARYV

B1: CBD1033 whole antibody, human IgG1 with Fc-silencing mutations L234A, L235A and P329A (CBD1033-hIgG1-LALAPA) (antibody, V domains shown)
VH: QVQLVQSGAEVKKPGASVKVSCKASRYTFTDYNLHWVRQAPGQGLEWMGFIYPYNGGTGYAQKFQGRVTMTVDTSTSTAYMELSSLRSEDTAVYYCARDHRYNEGVSFDYWGQGTTVTVSS
VL: DIQLTQSPSSLSASVGDRATITCRASESVDGFGNSFMNWYQQKPGKAPKLLIYLASNLESGVPSRFSGSGSGTDFTLTISSVQPEDFATYYCQQNNEDPYTFGQGTKLEIKR
notes: On tLNPs the antibody was SATA-modified or AJICAP-thiolated (CBD1033.29) and conjugated to the LNP; also called CBD1033.3; CBD1033 IgG1
For B1, the koff [1] was 0.00307 s⁻¹, the kon [1] was 1.85e+06 M⁻¹ s⁻¹ and the EC50 [2] was 0.274 µg/mL. The Kd [3] was 1.43 nM, the Kd [4] was 1.71 nM and the Kd [5] was 2.27 nM. The Kd [6] was 31 nM, the koff [6] was 0.00114 s⁻¹ and the kon [6] was 36800 M⁻¹ s⁻¹. It also gave a Kd [7] of 8.99 nM, a koff [7] of 0.00111 s⁻¹ and a kon [7] of 124000 M⁻¹ s⁻¹. It also gave a Kd [8] of 5.43 nM, a koff [8] of 0.000271 s⁻¹ and a kon [8] of 50000 M⁻¹ s⁻¹. For the same binder, the Kd [9] was 2.46 nM, the koff [9] was 0.000289 s⁻¹ and the kon [9] was 117000 M⁻¹ s⁻¹.
